Experiment [1] concerns the target REFACTO® (recombinant factor VIII-like polypeptide consisting of amino acids 1-743 and 1638 through 2332 of human factor VIII) (human) (UniProt P00451). The experiment is described as follows: affinity column, peptide on Toyopearl Formyl 650-M; target in fraction by activity assay.
Experiment [2] concerns the target native human factor VIII (nhfVIII) (human) (UniProt P00451). The experiment is described as follows: batch binding to regenerated peptide beads; target in fraction by sandwich ELISA. (In general: ELISA stands for enzyme-linked immunosorbent assay.)
In experiment [3] the target is REFACTO® (recombinant factor VIII-like polypeptide consisting of amino acids 1-743 and 1638 through 2332 of human factor VIII) (human) (UniProt P00451). The description is as above.
REFACTO® (recombinant factor VIII-like polypeptide consisting of amino acids 1-743 and 1638 through 2332 of human factor VIII) (human), sequence (P00451 20-762, chain 1 of 2): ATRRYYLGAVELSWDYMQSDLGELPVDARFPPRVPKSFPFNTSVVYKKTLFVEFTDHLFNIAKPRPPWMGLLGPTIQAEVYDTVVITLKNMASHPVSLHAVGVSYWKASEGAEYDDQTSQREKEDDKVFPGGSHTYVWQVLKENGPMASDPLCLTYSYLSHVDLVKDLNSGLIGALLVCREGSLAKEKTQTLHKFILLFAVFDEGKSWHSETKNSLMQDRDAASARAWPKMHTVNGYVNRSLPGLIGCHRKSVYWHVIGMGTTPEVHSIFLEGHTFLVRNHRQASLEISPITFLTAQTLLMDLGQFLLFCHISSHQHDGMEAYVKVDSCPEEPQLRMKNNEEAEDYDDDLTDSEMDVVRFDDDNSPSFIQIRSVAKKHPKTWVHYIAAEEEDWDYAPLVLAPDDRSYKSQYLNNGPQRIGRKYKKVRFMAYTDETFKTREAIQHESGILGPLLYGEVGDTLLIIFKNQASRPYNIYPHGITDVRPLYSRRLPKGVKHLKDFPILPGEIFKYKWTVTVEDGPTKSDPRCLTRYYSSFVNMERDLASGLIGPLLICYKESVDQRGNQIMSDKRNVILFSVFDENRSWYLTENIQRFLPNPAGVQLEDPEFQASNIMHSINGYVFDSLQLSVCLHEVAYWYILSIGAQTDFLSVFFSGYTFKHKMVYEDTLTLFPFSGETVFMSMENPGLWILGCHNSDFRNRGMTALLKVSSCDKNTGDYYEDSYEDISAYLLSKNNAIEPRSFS
REFACTO® (recombinant factor VIII-like polypeptide consisting of amino acids 1-743 and 1638 through 2332 of human factor VIII) (human), sequence (P00451 1657-2351, chain 2 of 2): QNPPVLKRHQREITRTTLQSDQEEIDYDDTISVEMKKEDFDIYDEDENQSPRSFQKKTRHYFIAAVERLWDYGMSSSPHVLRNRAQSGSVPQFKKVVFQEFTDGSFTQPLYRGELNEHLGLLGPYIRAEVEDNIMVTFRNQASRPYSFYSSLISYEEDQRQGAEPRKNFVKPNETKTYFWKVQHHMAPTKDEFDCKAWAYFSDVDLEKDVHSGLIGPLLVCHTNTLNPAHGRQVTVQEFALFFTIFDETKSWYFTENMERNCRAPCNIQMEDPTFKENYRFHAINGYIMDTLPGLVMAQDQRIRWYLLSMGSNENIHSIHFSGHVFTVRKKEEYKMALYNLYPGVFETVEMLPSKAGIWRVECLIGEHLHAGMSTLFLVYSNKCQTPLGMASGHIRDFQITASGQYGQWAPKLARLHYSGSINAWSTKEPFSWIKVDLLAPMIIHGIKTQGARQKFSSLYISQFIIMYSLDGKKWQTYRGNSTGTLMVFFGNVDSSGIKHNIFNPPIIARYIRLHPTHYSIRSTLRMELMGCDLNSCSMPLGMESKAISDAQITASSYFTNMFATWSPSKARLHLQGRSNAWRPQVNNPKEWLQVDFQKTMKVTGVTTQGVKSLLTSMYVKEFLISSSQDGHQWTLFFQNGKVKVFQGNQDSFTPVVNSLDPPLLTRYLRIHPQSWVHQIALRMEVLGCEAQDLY
Experiment [4] has the same target. Description: affinity column, peptide on Toyopearl Formyl 650-M; target in fraction by RP-HPLC.
Experiment [5] has the same target. Description: batch binding to peptide beads; target in fraction by sandwich ELISA.

Positions of bridges follow the written chain, without caps; N, C: chain ends. No end group written: not given here. *: point of attachment. NHNH2 = NN*

native human factor VIII (nhfVIII) (human), sequence (P00451 20-2351): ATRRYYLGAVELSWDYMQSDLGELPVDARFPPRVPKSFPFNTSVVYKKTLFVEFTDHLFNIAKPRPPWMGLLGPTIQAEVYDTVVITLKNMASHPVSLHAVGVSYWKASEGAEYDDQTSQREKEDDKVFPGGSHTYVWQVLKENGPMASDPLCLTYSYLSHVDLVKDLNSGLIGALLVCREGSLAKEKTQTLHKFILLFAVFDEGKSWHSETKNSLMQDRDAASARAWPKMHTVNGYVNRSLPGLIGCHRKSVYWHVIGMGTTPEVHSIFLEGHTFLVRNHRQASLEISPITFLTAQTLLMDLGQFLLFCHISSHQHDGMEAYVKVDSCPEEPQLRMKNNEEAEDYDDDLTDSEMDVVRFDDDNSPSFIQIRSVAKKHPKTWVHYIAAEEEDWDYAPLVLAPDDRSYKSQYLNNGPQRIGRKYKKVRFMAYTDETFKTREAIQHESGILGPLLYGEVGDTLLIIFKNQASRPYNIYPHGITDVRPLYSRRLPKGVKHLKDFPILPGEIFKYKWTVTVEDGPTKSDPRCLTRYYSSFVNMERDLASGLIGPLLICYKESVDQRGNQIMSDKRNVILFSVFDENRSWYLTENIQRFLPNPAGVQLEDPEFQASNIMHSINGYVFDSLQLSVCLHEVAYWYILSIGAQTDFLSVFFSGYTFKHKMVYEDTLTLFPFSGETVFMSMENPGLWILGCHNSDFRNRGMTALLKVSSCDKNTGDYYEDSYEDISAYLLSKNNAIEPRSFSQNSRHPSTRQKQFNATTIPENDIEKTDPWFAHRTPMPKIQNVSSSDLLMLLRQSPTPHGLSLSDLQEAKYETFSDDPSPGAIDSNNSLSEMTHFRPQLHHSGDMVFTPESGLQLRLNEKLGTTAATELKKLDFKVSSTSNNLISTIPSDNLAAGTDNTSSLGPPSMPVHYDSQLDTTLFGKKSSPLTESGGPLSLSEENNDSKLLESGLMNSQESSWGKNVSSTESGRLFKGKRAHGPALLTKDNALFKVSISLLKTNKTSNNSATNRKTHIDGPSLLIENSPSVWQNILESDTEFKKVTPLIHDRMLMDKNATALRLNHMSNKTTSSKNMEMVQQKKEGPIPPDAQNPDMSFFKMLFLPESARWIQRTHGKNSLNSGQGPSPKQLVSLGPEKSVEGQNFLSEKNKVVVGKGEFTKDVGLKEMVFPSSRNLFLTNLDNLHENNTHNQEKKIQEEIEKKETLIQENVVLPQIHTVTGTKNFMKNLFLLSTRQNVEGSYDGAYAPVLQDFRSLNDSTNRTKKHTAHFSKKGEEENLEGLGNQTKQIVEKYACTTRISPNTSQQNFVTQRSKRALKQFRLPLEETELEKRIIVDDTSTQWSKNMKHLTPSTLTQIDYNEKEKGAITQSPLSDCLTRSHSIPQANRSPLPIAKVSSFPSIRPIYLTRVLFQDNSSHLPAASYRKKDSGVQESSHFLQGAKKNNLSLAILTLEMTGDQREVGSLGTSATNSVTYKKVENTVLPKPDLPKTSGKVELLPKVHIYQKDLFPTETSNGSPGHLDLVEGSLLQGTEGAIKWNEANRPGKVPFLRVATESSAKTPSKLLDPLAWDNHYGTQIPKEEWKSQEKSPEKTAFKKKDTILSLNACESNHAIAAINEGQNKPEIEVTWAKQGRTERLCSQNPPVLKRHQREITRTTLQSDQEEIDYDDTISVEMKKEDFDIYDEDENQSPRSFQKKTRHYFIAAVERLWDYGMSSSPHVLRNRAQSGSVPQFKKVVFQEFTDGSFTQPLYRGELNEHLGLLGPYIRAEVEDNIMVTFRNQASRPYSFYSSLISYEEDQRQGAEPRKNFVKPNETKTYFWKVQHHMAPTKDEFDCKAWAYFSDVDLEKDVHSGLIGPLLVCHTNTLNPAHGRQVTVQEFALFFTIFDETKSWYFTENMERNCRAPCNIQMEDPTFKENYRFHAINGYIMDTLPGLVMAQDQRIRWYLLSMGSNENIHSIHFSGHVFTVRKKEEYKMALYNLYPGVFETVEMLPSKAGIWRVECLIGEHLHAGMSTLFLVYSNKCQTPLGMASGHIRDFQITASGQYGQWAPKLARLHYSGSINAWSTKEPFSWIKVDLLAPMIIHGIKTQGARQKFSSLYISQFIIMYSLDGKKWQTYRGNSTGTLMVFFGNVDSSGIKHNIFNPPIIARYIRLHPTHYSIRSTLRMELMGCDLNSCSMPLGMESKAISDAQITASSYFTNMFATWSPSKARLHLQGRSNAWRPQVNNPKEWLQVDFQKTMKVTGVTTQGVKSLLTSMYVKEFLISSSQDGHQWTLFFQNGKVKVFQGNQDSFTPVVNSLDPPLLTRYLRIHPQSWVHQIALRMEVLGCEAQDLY

B1: Affinity ligand CS-458 (peptide)
peptide: AEGTGDFCWVFAFDHCHDPGPEGGGS-NHNH2
modifications: disulfide 8-16 (inferred)
As to B1, in experiment [1], the % recovery, Elution A was found to be 55.6% and the % recovery, Flow worked out at 1.4%. For the same molecule, in experiment [2], the % of Total Recovered in Eluate amounted to 39%, the % of Total Recovered in Unbound came to 48% and the % of Total Recovered in Wash came out at 13%. For the same molecule, in experiment [3], the % of Total Recovered in Eluate is 27%, the % of Total Recovered in Unbound is 59% and the % of Total Recovered in Wash was 14%. In addition, in experiment [4], the % recovery, Elution A came out at 54.3%; the % recovery, Elution B stood at 0%; the % recovery, Flow is 1.8%; the % recovery, pH2 was 0%. Also, in experiment [5], the % of Input Recovered in Eluate worked out at 47%, the % of Input Recovered in Unbound was 20% and the % of Input Recovered in Wash was determined as 10%.

The record behind these values is US20060193829A1.
